Here are results for four compounds from publication PMC5489143, “One ligand, two regulators and three binding sites: How KDPG controls primary carbon metabolism in Pseudomonas” (PLoS Genetics, 2017).

The target in one data set is T1, RccR (RccR-His) (Pseudomonas paralactis, UniProt A0A0R3AJU3).
T1 construct: gene hexR; full gene in pET42b, E. coli BL21(DE3) pLysS; C-terminal His tag kept; nickel and heparin columns
T1 sequence (A0A0R3AJU3 1-288): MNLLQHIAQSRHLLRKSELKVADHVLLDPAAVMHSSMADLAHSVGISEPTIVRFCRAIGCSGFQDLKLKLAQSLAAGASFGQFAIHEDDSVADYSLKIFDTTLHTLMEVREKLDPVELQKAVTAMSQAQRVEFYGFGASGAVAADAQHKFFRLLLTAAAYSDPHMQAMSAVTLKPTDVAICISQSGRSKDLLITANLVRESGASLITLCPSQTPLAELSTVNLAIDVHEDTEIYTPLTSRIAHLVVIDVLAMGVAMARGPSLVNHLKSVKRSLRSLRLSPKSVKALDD
The data set is described as follows: SPR (ReDCaT, Biacore T200), change of RccR binding to immobilised DNA. The conditions noted are these: effector; lowers binding to aceE and rccR sites, raises binding to aceA 28 bp site; 0.5 uM RccR-His, 0-1000 uM ligand, 10 mM Hepes pH 7.4, 300 mM NaCl, 3 mM EDTA, 25 C. (Surface plasmon resonance follows binding to a sensor surface in real time, without labels.)

Data set [1] concerns RccR-His (Pseudomonas fluorescens SBW25). The data set is described as follows: DNase I footprinting. The note with it: full protection concentration, SPR: 10 mM Hepes pH 7.4, 300 mM NaCl, 3 mM EDTA, 0.05% Tween20, 25 C, DNase I footprint: 10 mM Tris-HCl pH 8.0, 50 mM NaCl, 10 mM KCl, 5 mM MgCl2, 1 mM DTT ….

Consider `O=C(O)C(=O)C[C@H](O)[C@H](O)COP(=O)(O)O` [KDPG, 2-keto-3-deoxy-6-phosphogluconate], for which the “%Rmax” value on RccR (RccR-His) was “KDPG addition decreased the affinity of RccR-His for both aceE and rccR consensus sequences”.
aceE promoter DNase I probe yielded a binding signal in data set [1] (two sites) of 10 nM.
In turn, rccR promoter DNase I probe displayed a binding signal in data set [1] of 20 nM.
aceA promoter DNase I probe: the binding signal in data set [1] (lower affinity than aceE and rccR) stood at 80 nM.
